Experimental data reported in article PMC6356648.

Target: laminin-332 produced and deposited by iNFs and iCAFs (human (endogenous in iNFs and iCAFs)) (UniProt Q16787)

contraction of a collagen-I gel by iCAFs, untreated (reference): 73%
contraction of a collagen-I gel by iCAFs, with BM2 (20 µg/mL): 44%
contraction of a collagen-I gel by iCAFs, with lebein-1 (10 µg/mL): 34%
Substance: integrin α3β1 (from UniProt P26006 33-1051; P05556 21-798) (receptor)
